Assay results reported in patent publication US5143839A, “Assay of endopeptidases and novel purified bacterial enzyme” (Ramot Ltd., priority 1989, dated 1992).

Legend:
[1] = substrate: CC(C)C[C@H](NC(=O)[C@H](C)NC(=O)[C@H](C)NC(=O)CCC(=O)O)C(=O)Nc1ccc([N+](=O)[O-])cc1; assay: Kinetic parameters of hydrolysis of Suc-Ala-Ala-Leu-NH-Np (Lineweaver-Burk); assay type: biochemical, bovine; details: other: (S) range 0.04-4.0 mM, 10 mM CaCl2, pH 7.5, 25° C., enzyme 2.2×10^-9 M
Procedure: (§1) Neutral endopeptidase and neutral proteinase activities were assayed by the two-stage assay using the synthetic substrate Suc-Ala-Ala-Leu-NH-Np supplemented with Streptomyces griseus aminopeptidase, usually 6-7 μg/ml. Assays were performed in 0.1M NaCl-0.05M Tris.HCl, pH 7.5 at 25° C., unless otherwise stated, with or without 0.01M CaCl2. Assay volume was 1 ml or 2.5 ml when using a Varian Techtron spectrophotometer or 0.2 ml at 23° C. when performed with microplates (Munc Immuno Plate II F) using a Kinetic Microplate Reader (Molecular Devices Corp.). Activity was measured by following the increase in absorbance at 405 nm, due to the release of 4-nitroaniline, E405 =10,600M^-1 cm^-1 [14 ]. Molar concentration of thermolysin was estimated using A280 1% =17.65 [15] and molecular mass of 34,600 Da; molar concentration of bovine kidney neutral endopeptidase by protein determination and molecular mass of 90 kDa, deduced from SDS PAGE. Both endopeptidase 24.11 from bovine kidney and thermolysin cleave the Ala-Leu bond of the compound at a very fast rate (Table 3). […]
(§2) Reactions were carried out in the presence of 10 mM CaCl2 at pH 7.5, 25° C. […] Values of kcat and Km were determined by Lineweaver-Burk plots.

[2] = substrate: CC(C)C[C@H](NC(=O)[C@H](C)NC(=O)[C@H](C)NC(=O)CCC(=O)O)C(=O)Nc1ccc([N+](=O)[O-])cc1; assay: as above; assay type: biochemical; details: other: (S) range 0.4-4.0 mM, 10 mM CaCl2, pH 7.5, 25° C., enzyme 3.0×10^-10 M
Procedure: as §1, with “3). The Leu residue of the substrate interacts with the major hydrophobic specificity sites of the enzymes (S'1), whereas the two Ala residues interact with additional subsites (S1, S2), thereby contributing to catalysis and/or binding. Even the 4-nitroaniline leaving group probably interacts with the enzyme at subsite S'2. Previously reported assays of endopeptidase 24.11 usually utilized a hydrophobic Phe residue, but Leu seems preferable in reaching higher kcat values. The rapid hydrolysis of the Leu residue is also preferable for the present two-stage assay utilizing Steptomyces aminopeptidase, since this enzyme very rapidly hydrolyzes the product of the endopeptidase attack, Leu-NH-Np.” for “3).”
as §2

| Protein | Km [1] [µM] | kcat [1] [s⁻¹] | Km [2] [µM] | kcat [2] [s⁻¹] | kcat/Km [2] [M^-1 s^-1 × 10^-6] |
| --- | --- | --- | --- | --- | --- |
| bovine kidney neutral endopeptidase 24.11 (Bos taurus) (protein, Endopeptidase 24.11 from bovine kidney was purified by Triton X-100 extraction; from tissue; host or cells: bovine kidney) MGRSESQMDITDINTPKPKKKQRWTPLEISLSVLVLLLTIIAVTMIALYATYDDGICKSSECIKSAARLIQNMDATVEPCTDFFKYACGGWLKRNVIPETSSRYSNFDILRDELEVVLKDVLQEPKTEDIIAVQKAKMLYRSCINETAIESRGGEPLLRLLPDIYDWPVALENWEQKYGSSWTAEKSIAQLNSKYGKKVIINFFVGTDDKNSTNHIIHIDQPQLGLPSRDYYECTAAYKEACTAYVDFMISVAKLIRQERGLPIDENQLSLEMNKVMDLEKEIANATTKSEDRNDPMLLYNKMTLAEVQNKFSLEFSGKPFSWSNFTNEIMSTVNINIPHEEEVIVYAPEYLTNLKLILAKYSARDLQNLMSWRFIMDLVSSLSRNYKESRNAFRKALYGTTSETATWRRCANYVNGNMENAVGRLYVEAAFPGDSKHVVEDLIAQIRAVFIQTLDDLTWMDAETKKKAEEKALAIKERIGYPDDIISNDDKLNKEYLELSYQEEEYFENIIQNLKFGQNRQLKKLREKVDKDEWISGAAVVNAFYSSGRNQIVFPAGILQPPFFSAQQPKSLNYGGIGMVIGHEITHGFDDNGRNFNKDGDLVDWWTQQSANNFKDLSQCMVYQYGNFSWDLANGQHLNGINTLGENIADNGGIGQAYRAYQNYVKKHGEEKLLPGLDLNHRQLFFLNFAQVWCGTYRTEYALNSIKTDVHSPGNFRIIGTLQNSPQFSEAFHCRKNSYMNPEKKCRVW | 150 | 120 |  |  |  |
| Thermolysin (Bacillus thermoproteolyticus) (protein) ITGTSTVGVGRGVLGDQKNINTTYSTYYYLQDNTRGNGIFTYDAKYRTTLPGSLWADADNQFFASYDAPAVDAHYYAGVTYDYYKNVHNRLSYDGNNAAIRSSVHYSQGYNNAFWNGSQMVYGDGDGQTFIPLSGGIDVVAHELTHAVTDYTAGLIYQNESGAINEAISDIFGTLVEFYANKNPDWEIGEDVYTPGISGDSLRSMSDPAKYGDPDHYSKRYTGTQDNGGVHINSGIINKAAYLISQGGTHYGVSVVGIGRDKLGKIFYRALTQYLTPTSNFSQLRAAAVQSATDLYGSTSQEVASVKQAFDAVGVK |  |  | 4200 | 1200 | 0.29 |
